Source: publication PMC9539438
Several values for one entry are separate records, joined by “and”; a condition that tells them apart may be missing. Equal values may be shown once.

Tests used:
[1] = molecular target: P66 with a c-Myc epitope tag inserted C-terminally to D303 (Borrelia burgdorferi); assay: native gel or EMSA; Blue native PAGE (4-16% Bis-Tris) of membrane B-fractions solubilised in 1.25% digitonin; immunoblot with anti-P66 or anti-c-Myc
[2] = molecular target: P66 with a c-Myc epitope tag inserted C-terminally to D303 (Borrelia burgdorferi)
[3] = molecular target: P66 with a c-Myc epitope tag inserted C-terminally to E33 (Borrelia burgdorferi); assay: native gel or EMSA; Blue native PAGE (4-16% Bis-Tris) of membrane B-fractions solubilised in 1.25% digitonin; immunoblot with anti-P66 or anti-c-Myc
[4] = molecular target: P66 with a c-Myc epitope tag inserted C-terminally to E33 (Borrelia burgdorferi)

Substance | stoichiometry N [1] | single-channel conductance of the outer membrane fraction in black lipid bilayers (1 M KCl, 20 mV) [2] [nS] | stoichiometry N [3] | single-channel conductance of the outer membrane fraction in black lipid bilayers (1 M KCl, 20 mV) [4] [nS]
P66 with a c-Myc epitope tag inserted C-terminally to D303 (natural protein) | 3 and 5 | < 4 | – | –
P66 with a c-Myc epitope tag inserted C-terminally to E33 (natural protein) | – | – | 3 | < 4
